The target in this test is Sulfolobus acidocaldarius SRP54 (Sulfolobus acidocaldarius) (UniProt O07853). Briefly: FRET or BRET.
UniProt O07853, sequence (O07853 whole entry): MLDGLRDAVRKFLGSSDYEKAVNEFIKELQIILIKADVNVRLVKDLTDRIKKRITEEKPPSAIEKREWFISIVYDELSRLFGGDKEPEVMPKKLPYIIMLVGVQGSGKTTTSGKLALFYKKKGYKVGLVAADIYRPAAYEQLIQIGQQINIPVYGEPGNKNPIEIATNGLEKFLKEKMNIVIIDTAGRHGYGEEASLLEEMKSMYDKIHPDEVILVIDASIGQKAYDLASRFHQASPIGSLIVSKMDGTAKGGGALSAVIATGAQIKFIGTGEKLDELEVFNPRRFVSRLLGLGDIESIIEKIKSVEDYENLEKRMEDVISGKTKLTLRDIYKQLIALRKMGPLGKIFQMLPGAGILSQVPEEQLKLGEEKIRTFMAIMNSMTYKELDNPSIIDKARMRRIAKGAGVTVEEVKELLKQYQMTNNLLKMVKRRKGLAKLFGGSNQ

Substance “FtsYΔαN3 (Gly129-Ser369) (from UniProt P27414 129-369) (domain or fragment)” came in with a dissociation constant Kd of 272 nM. As for “FtsYΔαN1 (Tyr87-Ser369) (from UniProt P27414 87-369) (domain or fragment)”, the dissociation constant Kd turned out to be 75 nM. In the case of “FtsYΔαN2 (Ser109-Ser369) (from UniProt P27414 109-369) (domain or fragment)”, the dissociation constant (Kd) was determined as 114 nM.

One may read the Kd as the equilibrium constant for the complex coming apart.

(Values after publication doi:10.1101/2022.04.13.488184.)
